Columns and labels:
[1] = molecular target: T1, CD3 epsilon/delta heterodimer protein (human, UniProt P07766 23-126; P04234 22-105); assay: bridging ELISA, human CD3 coated, bispecific titrated, detection with human Nectin-4-mFc and anti-mouse IgG HRP, tumor pH (pH 6.0 in the protocol); the signal needs both arms
T1 construct: Capture antigen of the bridging ELISA; also called human CD3; recombinant human CD3 antigen
Description: (§1) 1) Coat ELISA plates with 100 μL of 0.5 μg/mL recombinant human CD3 antigen in carbonate-bicarbonate coating buffer. 2) Cover plates with sealing film and incubate overnight at 4° C. 3) Decant plates and tap out residual liquid on a stack of paper towels. 4) Wash wells twice by dispensing 200 μL of pH 6.0 or pH 7.4 ELISA incubation buffer to the wells and completely aspirate the contents. 5) Add 200 μL of pH 6.0 or pH 7.4 ELISA incubation buffer to the wells. Cover with sealing film and place the plate onto a plate shaker set to 50 rpm for 60 minutes at room temperature. 6) Decant plates and tap out residual liquid on a stack of paper towels. 7) Serially dilute test articles in 3-fold dilutions starting at 3000 ng/mL in pH 6.0 or pH 7.4 ELISA incubation buffer. 8) Add 100 μL/well of diluted test articles to the plates 9) Cover with sealing film and place the plates onto a plate shaker set to 50 rpm for 60 minutes at room temperature. 10) Decant plates and tap out residual liquid on a stack of paper towels. 11) Wash wells three times by dispensing 200 μL of pH 6.0 or pH 7.4 ELISA wash buffer to the wells and completely aspirate the contents. 12) Dilute the HRP secondary antibody at 1:2500 in pH 6.0 or pH 7.4 ELISA incubation buffer. […] Read plates at 450 nm using PerkinElmer, EnSpire 2300 Multilabel Reader.

human Nectin-4-mFc = molecular target: T2, human Nectin-4-mFc (human, UniProt Q96NY8 32-349); assay: bridging ELISA, human CD3 coated, detection with human Nectin-4-mFc and anti-mouse IgG HRP, tumor pH (pH 6.0 in the protocol)
T2 construct: extracellular domain; Detection reagent of the bridging ELISA; also called recombinant human Nectin-4 ECD; not shown: mFc (mouse Fc)
T2 sequence (looked up): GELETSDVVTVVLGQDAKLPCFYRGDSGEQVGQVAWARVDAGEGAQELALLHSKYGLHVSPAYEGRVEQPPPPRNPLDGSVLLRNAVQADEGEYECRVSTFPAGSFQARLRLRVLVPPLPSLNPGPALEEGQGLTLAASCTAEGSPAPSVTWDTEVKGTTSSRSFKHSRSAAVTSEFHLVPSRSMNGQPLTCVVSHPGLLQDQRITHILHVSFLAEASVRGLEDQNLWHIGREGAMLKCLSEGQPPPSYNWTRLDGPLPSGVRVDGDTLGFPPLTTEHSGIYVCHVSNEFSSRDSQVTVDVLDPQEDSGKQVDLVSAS

[2] = molecular target: T1, CD3 epsilon/delta heterodimer protein; assay: bridging ELISA, human CD3 coated, bispecific titrated, detection with human Nectin-4-mFc and anti-mouse IgG HRP, physiological pH (pH 7.4 in the protocol); the signal needs both arms
Description: as §1

T1 sequence (P07766 23-126, stated change not applied, chain 1 of 2): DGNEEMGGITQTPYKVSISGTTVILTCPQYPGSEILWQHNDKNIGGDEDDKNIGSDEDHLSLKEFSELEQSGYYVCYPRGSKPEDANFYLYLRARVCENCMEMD
T1 sequence (P04234 22-105, stated change not applied, chain 2 of 2): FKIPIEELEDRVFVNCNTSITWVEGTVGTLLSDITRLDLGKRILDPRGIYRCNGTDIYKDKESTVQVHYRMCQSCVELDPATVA

B1: WT Nectin4 × WT CD3 (bispecific antibody)
VH: EVQLVESGGGLVQPGGSLRLSCAASGFTFSSYNMNWVRQAPGKGLEWVSYISSSSSTIYYADSVKGRFTISRDNAKNSLSLQMNSLRDEDTAVYYCARAYYYGMDVWGQGTTVTVSS
light: DIQMTQSPSSVSASVGDRVTITCRASQGISGWLAWYQQKPGKAPKFLIYAASTLQSGVPSRFSGSGSGTDFTLTISSLQPEDFATYYCQQAQSFPPTFGGGTKVEIKRTVAAPSVFIFPPSDEQLKSGTASVVCLLNNFYPREAKVQWKVDNALQSGNSQESVTEQDSKDSTYSLSSTLTLSKADYEKHKVYACEVTHQGLSSPVTKSFNRGECSRSGGGGEVQLVESGGGLVQPGGSLRLSCAASGFTFNTYAMNWVRQAPGKGLEWVARIRSKYNNYATYYADSVKDRFTISRDDSKNSLYLQMNSLKTEDTAVYYCVRHGNFGNSYVSWFAYWGQGTLVTVSSGGSGGSGGSGGSGGQAVVTQEPSLTVSPGGTVTLTCRSSTGAVTTSNYANWVQQKPGQAPRGLIGGTNKRAPWTPARFSGSLLGGKAALTITGAQAEDEADYYCALWYSNLWVFGGGTKLTVLSR
notes: elsewhere it is called a light chain variable region that also carries six anti-CD3 CDRs; also called BA-150-19-01-01-BF1; benchmark
EC50 (read off the curve) [1]: ~0.05 µg/mL | binding result (human Nectin-4-mFc): binds | EC50 (read off the curve) [2]: ~0.03 µg/mL

B2: CAB Nectin4 × CAB CD3 (bispecific antibody)
VH: EVQLVESGGGLVQPGGSLRLSCAASGFTFSSYNMNWVRQAPGKGLEWVSYISSSSSTIYYADSVKGRFTISRDNAKNSLSLQMNSLRDEDTAVYYCARAYYYGMDKWGQGTTVTVSS
light: DIQMTQSPSSVSASVGDRVTITCRASQGISGWEAWYQQKPGKAPKFLIYAASTLQSGVPSRFSGSGSGTDFTLTISSLQPEDFATYYCQQAQSFPPTFGGGTKVEIKRTVAAPSVFIFPPSDEQLKSGTASVVCLLNNFYPREAKVQWKVDNALQSGNSQESVTEQDSKDSTYSLSSTLTLSKADYEKHKVYACEVTHQGLSSPVTKSFNRGECSRSGGGGEVQLVESGGGLVQPGGSLRLSCAASGFTFNTYAMNWVRQAPGKGLEWVARIRSKYNNYATYYADSVKDRFTISRDDSKNSLYLQMNSLKTEDTAVYYCVRHGNFPNSKVSWFQYWGQGTLVTVSSGGSGGSGGSGGSGGQAVVTQEPSLTVSPGGTVTLTCRSSTGAVTTSNYDNWVQQKPGQAPRGLIGGTNKRAPWTPARFSGSLLGGKAALTITGAQAEDEADYYCALWYSNLWVFGGGTKLTVLSR
notes: elsewhere it is called a light chain variable region that also carries six anti-CD3 CDRs; also called BA-150-30-03-12-BF19
EC50 (read off the curve) [1]: ~0.03 µg/mL | binding result (human Nectin-4-mFc): binds | EC50 (read off the curve) [2]: ~0.2 µg/mL
